Measurements as given in US20230416345A1, “NEW TYPE II COLLAGEN BINDING PROTEINS” (Navigo Proteins GmbH, priority 2020, published 2023).
Changes are numbered by the printed parent chain. Each block holds one molecule with its values, some of them ahead of it.

Assays:
[1] = target: T1, human collagen type I (h Col I) (Homo sapiens, UniProt P02452+P08123); test: ELISA specificity vs human collagen type I; assay type: binding
T1 construct: purchased Sigma C5483-1MG
Protocol: (§1) High binding plates (Greiner, 781061) were immobilized with 2.5 μg/ml recombinant human collagen type II (h Col II, Chondrex, CHX-20051), rabbit collagen type II (rbCol II, prepared from rabbit eyes), porcine collagen type II (p Col II, prepared from porcine eyes), human collagen type I, (h Col I, Sigma, C5483-1MG), human collagen type V (h Col V, Abcam, ab7537), human collagen type III (h Col Ill, Abcam, ab7535) and 67B89 (domain of fibronectin, produced in E. coli) respectively over night at 4° C. ELISA-plates were washed 3 times with PBST (PBS+ 0.1% Tween) and blocked with 3% BSA/0.5% Tween/PBS 2 h at RT. After washing with PBST, dilution series of 1.1 μM to 7×10^−4 nM of dimers (CID 211999, CID 212000), dilution series of 100 nM to 7×10^−6 nM of tetramers (CID 212001 and CID 212704) and dilution series of 10 μM to 2 nM of dimer (CID 212705) were incubated on ELISA-plates 1 h at rt. Plates were washed with PBST and incubated with biotinylated anti-StrepTag-ab (Antikörper-online, ABIN1573895) with a dilution of 1:10.000 for 1 h at rt. The binding was visualized with a-rabbit-IgG-HRP (Sigma, A9169) with a dilution of 1:10.000 and as substrate TMB Plus von KEM EN TEC Diagnostic, Kat-Nr. 4395.

[2] = target: T2, human collagen type V (h Col V) (Homo sapiens, UniProt P05997+P20908); test: ELISA specificity vs human collagen type V; assay type: binding
T2 construct: purchased Abcam ab7537
Protocol: as §1

[3] = target: T3, hCol2 (human Type II collagen) (Homo sapiens, UniProt P02458); test: Binding analysis by SPR (Biacore 3000) vs human type II collagen; settings: for Affinity [SPR] vs hCol2: dimers or tetramers, Langmuir 1:1 model
T3 construct: purchased Chondrex
Protocol: (§2) Proteins with affinity tag were purified by affinity chromatography and size exclusion. After affinity chromatography purification using Strep-Tactin Superflow high capacity cartridges (IBA Lifesciences) a size exclusion chromatography (SEC) was performed using an Äkta system and a Superdex™ 200 HiLoad 16/600 column (Cytiva). Fused variants with Aflibercept were purified via MabSelect SuRe (Cytiva) affinity chromatography followed by a size exclusion chromatography (SEC) using an Äkta system and a Superdex™ 200 HiLoad 16/600 column (Cytiva). All chromatography processing steps were carried out on AKTA systems using matrices from Cytiva. Homogenous species of all purified ligands were obtained; no aggregation was detected. Following SOS-PAGE analysis positive fractions were pooled and their protein concentrations were measured. Further analysis included SOS-PAGE, SE-HPLC and RP-HPLC. Protein concentrations were determined by absorbance measurement at 280 nm using the molar absorbent coefficient. Reversed phase chromatography (RP-HPLC) was performed using a Dionex HPLC system and a PLRP-S (5 μm, 300 Å) column (Agilent). Analytic size exclusion chromatography (SE-HPLC) was performed using a Dionex HPLC system and a Superdex200 increase 5/150 GL (Cytiva). Binding of Collagen II was evaluated by SPR measurements using a Biacore 3000 system. Purified Collagen II was obtained from Chondrex.inc and VEGF-165 was obtained from Millipore. Targets were immobilized on a CM5-Sensor via NHS/EDC chemistry (immobilization level ˜1000 RU). Binding molecules were injected at different concentration and affinity was calculated by langmuir 1:1 binding model.
The purified proteins were immobilized on a CM-5 sensor chip (GE Healthcare) using NHS/EDC after PDEA activation resulting in 110-140 RU with a Biacore 3000 system (GE Healthcare). The chip was equilibrated with SPR running buffer (PBS 0.05% Tween pH 7.3). Upon binding, target analyte was accumulated on the surface increasing the refractive index. This change in the refractive index was measured in real time and plotted as response or resonance units versus time. The analytes were applied to the chip in serial dilutions with a flow rate of 30 μl/min. The association was performed for 120 seconds and the dissociation for 120 seconds. After each run, the chip surface was regenerated with 30 μl regeneration buffer (10 mM glycine pH 2.0) and equilibrated with running buffer.
Binding studies were carried out by the use of the BIAcore 3000 (GE Healthcare); data evaluation was operated via the BIAevaluation 3.0 software, provided by the manufacturer, using the Langmuir 1:1 model (RI=0). Evaluated dissociation constants (KD) were standardized against the immobilized protein and indicated. Shown is the change in refractive index measured in real time and plotted as response or resonance unit [RU] versus time [sec].

[4] = target: T4, recombinant human collagen type II (h Col II) (Homo sapiens, UniProt P02458); test: KD-determination by ELISA vs human collagen type II; assay type: binding; settings: for binding affinity (KD) to type II collagen by ELISA, in words: tetramers: of different species
T4 construct: purchased Chondrex CHX-20051
Protocol: as §1

[5] = target: T5, 67B89 (domain of fibronectin) (Homo sapiens, UniProt P02751); test: ELISA specificity vs 67B89; assay type: binding
T5 construct: unrelated fibronectin domain EDB (67B89) could be observed; made in house; host or cells: E. coli
Protocol: as §1

[6] = Soluble expression in Escherichia coli BL21(DE3); assay type: physicochemical; settings: expression in E. coli BL21(DE3)
Protocol: Variants with affinity tag were expressed in Escherichia coli BL21(DE3) using a low copy plasmid system under regulation of a T7 promoter. Proteins were produced in soluble form after induction by lactose included in the medium (autoinduction medium). BL21 (DE3) competent cells were transformed with the expression plasmid, spread onto selective agar plates (kanamycin) and incubated overnight at 37° C. Precultures were inoculated from single colony in 3 ml 2×YT medium supplemented with 50 μg/ml kanamycin and cultured for 6 hours at 37° C. at 200 rpm in a conventional orbital shaker in culture tubes. […] Cultures were transferred to an orbital shaker and incubated at 30° C. and 200 rpm. Recombinant protein expression was induced by metabolizing glucose and subsequently allowing lactose to enter the cells. Cells were grown overnight for approx. 17 hours to reach a final OD600 of about 2-4. Before the harvest, the OD600 was measured, samples adjusted to 0.6/OD600 were withdrawn, pelleted and frozen at −20° C. To collect biomass cells were centrifuged at 12000×g for 15 min at 22° C. Pellets were weighed (wet weight). Cells were stored at −20° C. before processing.
as §2

human collagen type III = target: T6, human collagen type III (Homo sapiens, UniProt P02461); test: ELISA specificity vs human collagen type III; assay type: binding
T6 construct: purchased Abcam ab7535
T6 sequence (P02461 154-1221 limits assumed): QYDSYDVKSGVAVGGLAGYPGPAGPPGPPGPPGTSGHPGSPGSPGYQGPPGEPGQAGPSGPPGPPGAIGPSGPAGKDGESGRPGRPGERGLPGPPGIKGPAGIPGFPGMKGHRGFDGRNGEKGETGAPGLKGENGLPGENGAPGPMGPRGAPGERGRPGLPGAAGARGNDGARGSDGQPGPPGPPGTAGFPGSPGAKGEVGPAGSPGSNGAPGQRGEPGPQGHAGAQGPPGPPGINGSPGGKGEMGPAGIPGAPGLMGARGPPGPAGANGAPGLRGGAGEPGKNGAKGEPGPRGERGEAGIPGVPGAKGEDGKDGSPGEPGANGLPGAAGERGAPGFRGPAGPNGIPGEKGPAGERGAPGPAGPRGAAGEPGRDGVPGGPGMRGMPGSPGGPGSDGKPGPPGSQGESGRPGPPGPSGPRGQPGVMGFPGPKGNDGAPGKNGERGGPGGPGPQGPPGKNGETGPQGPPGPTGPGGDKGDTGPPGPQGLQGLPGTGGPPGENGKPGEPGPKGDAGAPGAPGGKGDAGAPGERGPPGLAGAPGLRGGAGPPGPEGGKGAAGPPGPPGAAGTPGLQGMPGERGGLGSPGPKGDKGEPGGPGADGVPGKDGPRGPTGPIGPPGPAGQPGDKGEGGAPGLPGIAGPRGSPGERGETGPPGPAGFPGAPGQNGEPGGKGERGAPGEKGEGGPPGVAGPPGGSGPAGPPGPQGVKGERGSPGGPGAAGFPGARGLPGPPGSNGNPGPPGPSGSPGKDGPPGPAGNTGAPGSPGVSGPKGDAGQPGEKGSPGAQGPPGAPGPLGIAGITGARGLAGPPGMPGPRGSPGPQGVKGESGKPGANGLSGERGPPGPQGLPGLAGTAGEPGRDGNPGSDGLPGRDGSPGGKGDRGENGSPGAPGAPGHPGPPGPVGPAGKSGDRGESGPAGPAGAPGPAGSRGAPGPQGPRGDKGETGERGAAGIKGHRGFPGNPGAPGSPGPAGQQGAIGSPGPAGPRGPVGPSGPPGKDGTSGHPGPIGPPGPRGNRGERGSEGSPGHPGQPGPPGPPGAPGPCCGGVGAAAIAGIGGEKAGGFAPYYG
Protocol: as §1

T4 sequence (P02458 182-1241): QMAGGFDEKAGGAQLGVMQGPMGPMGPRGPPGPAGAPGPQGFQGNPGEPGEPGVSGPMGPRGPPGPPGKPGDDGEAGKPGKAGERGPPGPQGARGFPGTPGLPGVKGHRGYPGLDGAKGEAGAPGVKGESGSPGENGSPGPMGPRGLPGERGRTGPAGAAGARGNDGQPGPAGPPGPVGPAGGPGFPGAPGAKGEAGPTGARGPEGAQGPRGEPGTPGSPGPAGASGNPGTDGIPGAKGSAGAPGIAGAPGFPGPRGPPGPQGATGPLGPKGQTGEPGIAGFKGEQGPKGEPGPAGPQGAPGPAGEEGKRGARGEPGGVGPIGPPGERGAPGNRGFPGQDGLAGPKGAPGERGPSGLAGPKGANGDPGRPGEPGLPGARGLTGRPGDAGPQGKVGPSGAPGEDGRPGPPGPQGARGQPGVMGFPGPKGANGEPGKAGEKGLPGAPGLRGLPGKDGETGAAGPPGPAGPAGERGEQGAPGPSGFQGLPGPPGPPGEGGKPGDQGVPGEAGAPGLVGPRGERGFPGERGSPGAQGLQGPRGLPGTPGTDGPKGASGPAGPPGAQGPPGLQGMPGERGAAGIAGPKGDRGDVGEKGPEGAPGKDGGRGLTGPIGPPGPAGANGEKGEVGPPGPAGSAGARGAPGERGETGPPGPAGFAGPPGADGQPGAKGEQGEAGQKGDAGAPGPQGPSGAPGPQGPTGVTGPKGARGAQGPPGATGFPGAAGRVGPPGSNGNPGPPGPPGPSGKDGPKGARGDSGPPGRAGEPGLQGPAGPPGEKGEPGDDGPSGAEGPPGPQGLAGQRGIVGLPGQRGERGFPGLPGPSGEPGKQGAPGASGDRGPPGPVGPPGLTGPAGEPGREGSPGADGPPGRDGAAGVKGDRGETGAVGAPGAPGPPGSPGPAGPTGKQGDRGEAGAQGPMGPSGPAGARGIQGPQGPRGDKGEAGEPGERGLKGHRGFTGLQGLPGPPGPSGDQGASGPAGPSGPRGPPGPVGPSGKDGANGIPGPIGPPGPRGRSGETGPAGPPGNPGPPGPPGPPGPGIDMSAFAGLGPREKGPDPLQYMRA
T3 sequence (P02458 182-1241): as above
T1 sequence (P02452 162-1218 limits assumed): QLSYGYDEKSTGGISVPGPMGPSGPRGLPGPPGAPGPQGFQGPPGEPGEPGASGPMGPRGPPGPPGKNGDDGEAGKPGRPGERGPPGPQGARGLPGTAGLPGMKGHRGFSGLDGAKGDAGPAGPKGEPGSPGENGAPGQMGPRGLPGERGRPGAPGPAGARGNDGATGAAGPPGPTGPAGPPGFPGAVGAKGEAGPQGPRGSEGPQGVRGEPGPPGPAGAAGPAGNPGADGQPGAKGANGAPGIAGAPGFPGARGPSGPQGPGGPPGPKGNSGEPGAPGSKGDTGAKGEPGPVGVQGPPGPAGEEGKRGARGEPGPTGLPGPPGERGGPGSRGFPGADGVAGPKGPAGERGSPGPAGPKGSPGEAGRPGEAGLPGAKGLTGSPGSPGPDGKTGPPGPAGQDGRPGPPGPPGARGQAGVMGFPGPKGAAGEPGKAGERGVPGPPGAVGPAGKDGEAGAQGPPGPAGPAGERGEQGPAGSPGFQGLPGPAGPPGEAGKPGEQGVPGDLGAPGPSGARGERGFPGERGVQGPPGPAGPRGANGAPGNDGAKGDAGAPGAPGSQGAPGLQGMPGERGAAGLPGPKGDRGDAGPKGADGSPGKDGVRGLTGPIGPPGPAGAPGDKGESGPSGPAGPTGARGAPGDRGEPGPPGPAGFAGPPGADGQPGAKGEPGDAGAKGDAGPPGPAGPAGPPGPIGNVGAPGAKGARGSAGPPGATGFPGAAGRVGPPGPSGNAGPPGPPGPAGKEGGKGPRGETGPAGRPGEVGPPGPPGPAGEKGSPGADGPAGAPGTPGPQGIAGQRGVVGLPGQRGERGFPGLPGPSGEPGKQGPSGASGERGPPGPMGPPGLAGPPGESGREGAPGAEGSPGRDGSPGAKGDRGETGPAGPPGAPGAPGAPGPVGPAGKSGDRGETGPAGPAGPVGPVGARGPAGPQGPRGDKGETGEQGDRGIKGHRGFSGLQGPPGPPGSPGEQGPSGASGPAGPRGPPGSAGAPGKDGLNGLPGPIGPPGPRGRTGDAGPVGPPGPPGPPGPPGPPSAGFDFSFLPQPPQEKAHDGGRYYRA
T1 sequence (P08123 80-1119 limits assumed): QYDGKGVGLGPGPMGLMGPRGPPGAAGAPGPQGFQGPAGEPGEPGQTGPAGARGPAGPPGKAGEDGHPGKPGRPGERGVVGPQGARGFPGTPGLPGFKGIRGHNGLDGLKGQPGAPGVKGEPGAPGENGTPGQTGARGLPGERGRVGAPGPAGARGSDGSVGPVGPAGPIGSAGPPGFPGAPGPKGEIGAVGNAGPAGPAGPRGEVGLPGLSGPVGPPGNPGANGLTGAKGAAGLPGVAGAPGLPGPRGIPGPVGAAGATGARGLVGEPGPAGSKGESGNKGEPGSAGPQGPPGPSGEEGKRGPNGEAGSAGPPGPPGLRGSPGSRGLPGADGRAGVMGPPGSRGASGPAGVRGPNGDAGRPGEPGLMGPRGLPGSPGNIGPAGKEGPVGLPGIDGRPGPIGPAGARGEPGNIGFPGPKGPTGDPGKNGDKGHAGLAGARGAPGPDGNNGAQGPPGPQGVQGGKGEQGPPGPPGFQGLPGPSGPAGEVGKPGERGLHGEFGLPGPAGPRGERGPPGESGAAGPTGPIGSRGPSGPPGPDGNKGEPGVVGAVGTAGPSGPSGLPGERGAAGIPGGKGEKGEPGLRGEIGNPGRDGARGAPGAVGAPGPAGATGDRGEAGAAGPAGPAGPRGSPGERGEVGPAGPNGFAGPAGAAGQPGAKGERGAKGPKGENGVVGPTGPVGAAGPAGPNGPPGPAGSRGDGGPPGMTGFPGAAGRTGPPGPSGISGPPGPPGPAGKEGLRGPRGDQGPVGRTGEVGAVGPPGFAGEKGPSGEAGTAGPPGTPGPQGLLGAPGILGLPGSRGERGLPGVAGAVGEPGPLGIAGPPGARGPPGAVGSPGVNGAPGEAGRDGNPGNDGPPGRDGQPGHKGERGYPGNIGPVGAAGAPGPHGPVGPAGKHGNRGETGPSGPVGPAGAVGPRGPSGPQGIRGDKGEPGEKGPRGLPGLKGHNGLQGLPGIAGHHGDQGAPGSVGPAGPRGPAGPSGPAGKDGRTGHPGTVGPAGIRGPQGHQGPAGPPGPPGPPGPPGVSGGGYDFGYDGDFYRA
T5 sequence (P02751 1089-1540 limits assumed): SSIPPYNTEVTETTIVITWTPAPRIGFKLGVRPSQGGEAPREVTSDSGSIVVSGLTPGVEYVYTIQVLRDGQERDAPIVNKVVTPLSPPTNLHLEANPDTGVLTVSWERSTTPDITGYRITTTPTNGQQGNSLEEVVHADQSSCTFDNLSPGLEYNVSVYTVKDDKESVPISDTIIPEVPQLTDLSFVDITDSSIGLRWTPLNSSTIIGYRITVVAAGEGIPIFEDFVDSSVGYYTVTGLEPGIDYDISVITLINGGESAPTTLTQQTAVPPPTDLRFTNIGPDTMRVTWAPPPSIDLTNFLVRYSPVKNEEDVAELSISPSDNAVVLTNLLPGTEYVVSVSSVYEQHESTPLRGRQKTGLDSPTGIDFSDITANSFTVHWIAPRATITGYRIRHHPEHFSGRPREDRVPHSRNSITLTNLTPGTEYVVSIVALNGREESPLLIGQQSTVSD

- binding to type I collagen (ELISA) [1]: No unspecific binding
- binding to type V collagen (ELISA) [2]: No unspecific binding
- Affinity [SPR] vs hCol2 [3]: 127 nM
- binding affinity (KD) to type II collagen by ELISA, in words [4]: 1-2-digit nM
- binding to domain of fibronectin (67B89) (ELISA) [5]: No unspecific binding
- binding to type III collagen (ELISA) (human collagen type III): No unspecific binding
B1: CID 211999: dimer of SEQ ID NO: 2 (dimer of directly joint monomers) (protein)
chain: IAAKFDEAQSAADSEILHLPNLTEQQRHYFRRWLSDDPSVSTHILTQAQHLNDDQAPKIAAKFDEAQSAADSEILHLPNLTEQQRHYFRRWLSDDPSVSTHILTQAQHLNDDQAPKSAWSHPQFEK
modifications: Col2 binding protein (dimer of 211261) (CID211999)
- Solubility Soluble expression [6]: 100%

- binding to type I collagen (ELISA) [1]: No unspecific binding
- binding to type V collagen (ELISA) [2]: No unspecific binding
- Affinity [SPR] vs hCol2 [3]: <0.5 nM
- binding affinity (KD) to type II collagen by ELISA, in words [4]: 3 digit-picomolar
- binding to domain of fibronectin (67B89) (ELISA) [5]: No unspecific binding
- binding to type III collagen (ELISA) (human collagen type III): No unspecific binding
B2: CID 212001: tetramer of SEQ ID NO: 2 (protein)
chain: IAAKFDEAQSAADSEILHLPNLTEQQRHYFRRWLSDDPSVSTHILTQAQHLNDDQAPKIAAKFDEAQSAADSEILHLPNLTEQQRHYFRRWLSDDPSVSTHILTQAQHLNDDQAPKIAAKFDEAQSAADSEILHLPNLTEQQRHYFRRWLSDDPSVSTHILTQAQHLNDDQAPKIAAKFDEAQSAADSEILHLPNLTEQQRHYFRRWLSDDPSVSTHILTQAQHLNDDQAPKSAWSHPQFEK
modifications: Col2 binding protein (tetramer of 211261) (CID212001)
- Binding to type II collagen via SPR ([3]; FIG. 3, FIG. 4A): binding to type II collagen with high affinity
- Solubility Soluble expression [6]: 100%

- Affinity [SPR] vs hCol2 [3]: 169 nM
- binding affinity (KD) to human type II collagen (ELISA) [4]: 460 nM
B3: CID 210987: hetero-dimeric binding protein comprising SEQ ID NO: 10 and SEQ ID NO: 6 linked head-to-tail (protein)
chain: IAAKFDEAQQAAFYEILHLPNLTEQQRNYFIQWLRDDPSVSLEVLGTAQRLNDSQAPKIAAKFDEAQQLAFYQILHLENLTEEQRNAFIQSLRDDPSVSLEVLGEAIKLNLSQAPK
modifications: Col2 binding protein (dimer) 210987
- Solubility Soluble expression [6]: 80%

B4: CID 211027: heterodimer with SEQ ID NO: 10 as N-terminal monomer (protein)
chain: B3 chain with L100A, I107R, L111K
modifications: Col2 binding protein (dimer) 211027
- Solubility Soluble expression [6]: 85%

B5: CID 210992: heterodimer with SEQ ID NO: 10 as N-terminal monomer (protein)
chain: B3 chain with L100T, I107E, L111Y
modifications: Col2 binding protein (dimer) 210992
- Solubility Soluble expression [6]: 95%
